Laboratory results taken from article PMC6122994 (The Journal of Cell Biology, 2018).

Molecular target: the molecule itself
Experiment: SEC

B1: MBP-Opi1 (full-length) (natural protein, S. cerevisiae, UniProt P21957 1-404, looked up)
chain: MSENQRLGLSEEEVEAAEVLGVLKQSCRQKSQPSEDVSQADKMPASESSTTPLNILDRVSNKIISNVVTFYDEINTNKRPLKSIGRLLDDDDDEHDDYDYNDDEFFTNKRQKLSRAIAKGKDNLKEYKLNMSIESKKRLVTCLHLLKLANKQLSDKISCLQDLVEKEQVHPLHKQDGNARTTTGAGEDETSSDEDDDDEEFFDASEQVNASEQSIVVKMEVVGTVKKVYSLISKFTANSLPEPARSQVRESLLNLPTNWFDSVHSTSLPHHASFHYANCEEQKVEQQQQQQQQQQQQQLLQQQLLQQQQQKRNKDGDDSASPSSSVTANGKVLILAKESLEMVRNVMGVVDSTLGKAEEWVKQKQEVKEMIRERFLQQQQQYRQQQQKDGNYVKPSQDNVDSKD
- binding result: binds
